Experimental data reported in article doi:10.1101/2024.10.01.615909 (bioRxiv, 2024).

Target: T1, S-tag-KLCR1 (Arabidopsis thaliana, UniProt O81629 1-609)
T1 sequence: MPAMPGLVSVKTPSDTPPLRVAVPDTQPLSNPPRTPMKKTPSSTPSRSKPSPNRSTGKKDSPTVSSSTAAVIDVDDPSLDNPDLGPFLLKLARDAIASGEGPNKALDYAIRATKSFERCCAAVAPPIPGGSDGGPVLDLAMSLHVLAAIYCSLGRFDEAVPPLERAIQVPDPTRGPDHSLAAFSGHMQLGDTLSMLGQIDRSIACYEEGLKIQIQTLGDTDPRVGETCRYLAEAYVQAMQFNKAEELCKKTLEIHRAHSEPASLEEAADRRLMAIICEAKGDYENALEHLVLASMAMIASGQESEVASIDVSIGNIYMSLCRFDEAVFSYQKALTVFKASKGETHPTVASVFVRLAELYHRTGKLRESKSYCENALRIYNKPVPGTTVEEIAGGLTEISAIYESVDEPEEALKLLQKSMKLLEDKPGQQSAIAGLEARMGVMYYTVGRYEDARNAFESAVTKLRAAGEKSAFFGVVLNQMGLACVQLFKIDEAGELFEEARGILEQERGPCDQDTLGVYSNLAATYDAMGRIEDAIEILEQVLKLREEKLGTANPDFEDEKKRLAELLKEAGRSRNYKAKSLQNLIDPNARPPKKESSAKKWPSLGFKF
Test: co-sedimentation

B1: His8-SUMO (HS)-IQD2 (natural protein)
chain: MGKKAKWFSSVKKAFSPDSKKSKQKLAEGQNGVISNPPVVDNVRQSSSSPPPALAPREVRVAEVIVERNRDLSPPSTADAVNVTATDVPVVPSSSAPGVVRRATPTRFAGKSNEEAAAILIQTIFRGYLARRALRAMRGLVRLKLLMEGSVVKRQAANTLKCMQTLSRVQSQIRARRIRMSEENQARQKQLLQKHAKELAGLKNGDNWNDSIQSKEKVEANLLSKYEATMRRERALAYSYSHQQNWKNNSKSGNPMFMDPSNPTWGWSWLERWMAGRPLESSEKEQSNSNNDNAASVKGSINRNEAAKSLTRNGSTQPNTPSSARGTPRNKNSFFSPPTPSRLNQSSRKSNDDDSKSTISVLSERNRRHSIAGSSVRDDESLAGSPALPSYMVPTKSARARLKPQSPLGGTTQENEGFTDKASAKKRLSYPTSPALPKPRRFSAPPKVESGGVTVTNGAGS
  binding result: binds
